Experimental findings from the RNAGym collection of RNA variant scans (doi:10.7554/elife.80360) are described below.

B1: HDV Ribozyme (parent)
chain: GGCCGGCAUGGUCCCAGCCUCCUCGCUGGCGCCGGCUGGGCAACAUUCCGAGGGGACCGUCCCCUCGGUAAUGGCGAAUGGGACCCA

The variants in the data set derive from B1. The experiment in a line: self-cleavage, relative activity (ratio to wild type); higher = more cleavage; co-transcriptional.
In the case of U65C G68C, the self-cleavage came to 0.883.

On to C14U C26U, for which the self-cleavage was 1.07.

As to C4U C7A, the self-cleavage was 0.104.

Consider U20C A71C, for which the self-cleavage is 0.0692.

As for U27C G35U, the self-cleavage turned out to be 0.302.

In the case of G11C C61A, the self-cleavage came out at 0.185.

Take C48G C57A: the self-cleavage was determined as 0.798.

Take G54A U65C: the self-cleavage was 0.696.

Take G17A C24G: the self-cleavage was determined as 0.0791.

As for C30U C86A, the self-cleavage was found to be 0.923.

Consider C49G C75A, for which the self-cleavage worked out at 0.185.

Consider C48G G52C, for which the self-cleavage was determined as 0.762.

As to C36A G80C, the self-cleavage is 0.178.

In the case of C22A G73A, the self-cleavage is 0.0723.

Regarding C36G A51G, the self-cleavage amounted to 0.151.

G1A C30A: the self-cleavage is 0.0875.

C7A A87G: the self-cleavage came to 0.521.

Take G28C C61G: the self-cleavage worked out at 0.158.

Consider C4A G31A, for which the self-cleavage was 0.0415.

Regarding G52U G76A, the self-cleavage turned out to be 0.936.

Take G29A A56U: the self-cleavage is 0.111.

For the variant G6A C41G, the self-cleavage came out at 0.107.

C19U U46G: the self-cleavage came to 0.

As to C4G C36U, the self-cleavage worked out at 0.0504.

G17A U37C: the self-cleavage was 1.1.

With A56U G68C, the self-cleavage is 0.872.

As to G2C C36G, the self-cleavage was determined as 0.26.

On to A71C C85A, for which the self-cleavage was 0.578.

For the variant G67C G76U, the self-cleavage was determined as 1.11.

Take G59A C84U: the self-cleavage was found to be 0.73.

Take U12A U23A: the self-cleavage is 0.192.

On to G55U A70G, for which the self-cleavage amounted to 0.867.

Take C24G G76A: the self-cleavage worked out at 0.101.

Regarding G76A U79G, the self-cleavage turned out to be 0.672.

With C19G U37G, the self-cleavage stood at 0.111.

C33U G73U: the self-cleavage came to 0.391.

With C15G C19G, the self-cleavage was determined as 0.

In the case of G28A U37A, the self-cleavage was found to be 0.0773.

For G1A G40U, the self-cleavage is 0.0615.

With G17U G28A, the self-cleavage came to 0.188.

Take C48U A56G: the self-cleavage is 0.989.

Take C7G G39A: the self-cleavage was 0.147.

In the case of G76C C84G, the self-cleavage worked out at 0.618.

For C62U G81A, the self-cleavage is 0.531.

Turning to C19G U69C, the self-cleavage came to 0.

A8U C32U: the self-cleavage worked out at 0.554.

In the case of G11C C13A, the self-cleavage turned out to be 0.142.

For the variant G2C A42C, the self-cleavage worked out at 0.122.

Consider C18G U27A, for which the self-cleavage worked out at 0.0665.

Regarding U37A A51U, the self-cleavage was 0.

For G1C C57A, the self-cleavage was 0.284.

For the variant C7G C19G, the self-cleavage was found to be 0.0791.

On to G39U U69G, for which the self-cleavage worked out at 0.635.

For A51C G80U, the self-cleavage was 0.199.

For G11U C41A, the self-cleavage was 0.201.

On to G52A C57G, for which the self-cleavage is 1.01.

As to C13G A78G, the self-cleavage came out at 0.111.

As for U23G A70U, the self-cleavage was 0.492.

As for U27G A51G, the self-cleavage was determined as 1.03.

On to C41U U69C, for which the self-cleavage came out at 0.955.

Take G25U C30A: the self-cleavage was found to be 0.158.

On to G35U G73C, for which the self-cleavage is 0.185.

Take A8C A42U: the self-cleavage turned out to be 0.133.

As for A8G U60G, the self-cleavage was determined as 1.11.

Take G5C G6U: the self-cleavage was 0.185.

Take G50U A51U: the self-cleavage came to 1.05.

For the variant G35U U60G, the self-cleavage is 0.285.

With G6U C44U, the self-cleavage was determined as 0.162.

Consider A16C G31C, for which the self-cleavage turned out to be 0.0639.

For the variant C15A G73U, the self-cleavage stood at 0.095.

As to C21G G82C, the self-cleavage was found to be 0.0437.

C33U U46C: the self-cleavage stood at 0.68.

On to C26A G68C, for which the self-cleavage is 0.87.

On to G53A G73U, for which the self-cleavage worked out at 0.304.

C66U A71G: the self-cleavage stood at 0.909.

Turning to U47C G74C, the self-cleavage amounted to 0.256.

With C26U C49G, the self-cleavage came to 0.973.

For the variant G31U C49U, the self-cleavage amounted to 0.302.

Take G35C C84G: the self-cleavage was found to be 0.116.

G17C A87U: the self-cleavage was 0.171.

Regarding G25U C41U, the self-cleavage worked out at 0.188.

C4G G5C: the self-cleavage was found to be 0.0594.

As to U72A C75G, the self-cleavage is 0.119.

For the variant C14A C85A, the self-cleavage turned out to be 0.623.

C48A U60G: the self-cleavage is 0.886.

Regarding U9A A43U, the self-cleavage amounted to 0.675.

For the variant G11A G34C, the self-cleavage came out at 0.0378.

In the case of G10U G25A, the self-cleavage turned out to be 0.114.

Regarding G74U C75A, the self-cleavage worked out at 0.228.

Turning to A45G C63A, the self-cleavage stood at 0.872.

As to A42C A71G, the self-cleavage worked out at 0.361.

Consider C13A G68U, for which the self-cleavage amounted to 0.125.

With C32U G76C, the self-cleavage is 0.854.

Take C18U A51G: the self-cleavage was determined as 0.623.

For the variant C57A C62G, the self-cleavage turned out to be 0.85.

U12G G55U: the self-cleavage is 0.748.

As for A16C G52C, the self-cleavage was 1.04.

U23A G40U: the self-cleavage was found to be 0.769.

Take C19U U23G: the self-cleavage was 0.237.

On to G11A G50U, for which the self-cleavage came to 0.283.

For U12A C49A, the self-cleavage was found to be 0.128.

With G38C G52A, the self-cleavage stood at 0.322.

With C21U G76A, the self-cleavage was determined as 0.271.

Turning to C64U A70U, the self-cleavage worked out at 1.01.

Regarding G31A U69A, the self-cleavage came to 0.564.

On to G1U A71C, for which the self-cleavage turned out to be 0.297.

Regarding G17C G73U, the self-cleavage is 0.0852.

On to C13U C14G, for which the self-cleavage stood at 0.391.

For G17U A43G, the self-cleavage turned out to be 0.237.

With G5U C61G, the self-cleavage was 0.262.

Turning to C18U C61G, the self-cleavage is 0.53.

For the variant A43U C84A, the self-cleavage turned out to be 0.346.

Consider G1C A78U, for which the self-cleavage came out at 0.0755.

U46G G73A: the self-cleavage turned out to be 0.831.

For G52A C62U, the self-cleavage stood at 1.12.

Consider C49U, for which the self-cleavage was found to be 0.96.

As to G73A C75G, the self-cleavage came to 0.19.

In the case of C14G C58G, the self-cleavage stood at 0.712.

With C58G U79C, the self-cleavage is 0.366.

As for C30G C57U, the self-cleavage is 0.0332.

G34C C36G: the self-cleavage was 0.095.

Regarding G11C G73A, the self-cleavage worked out at 0.0936.

In the case of A71U A83U, the self-cleavage came out at 0.426.

As to G1C C14U, the self-cleavage is 0.213.

Take U72C G76A: the self-cleavage was determined as 0.962.

Turning to C15G C21U, the self-cleavage came out at 0.0405.

As to C30U A71C, the self-cleavage is 0.404.

In the case of G11U U72C, the self-cleavage came to 0.231.

Turning to G31C G81A, the self-cleavage stood at 0.0791.

Turning to G17A G35C, the self-cleavage is 0.156.

For C22A G39A, the self-cleavage is 0.0528.

With U23G C48U, the self-cleavage was 0.731.

In the case of C58A G74A, the self-cleavage amounted to 0.426.

On to G31U C62A, for which the self-cleavage is 0.602.

For the variant C19A U46A, the self-cleavage turned out to be 0.0707.

C18G C22G: the self-cleavage was 0.0755.

Regarding C7U A45G, the self-cleavage stood at 0.72.

For the variant G38A C62U, the self-cleavage was determined as 0.153.

In the case of C13A C85A, the self-cleavage came to 0.19.

Turning to A42C G74C, the self-cleavage is 0.166.

Take G25A G76C: the self-cleavage was 0.217.

As to C44U A70U, the self-cleavage was found to be 0.955.

Take G2A U37C: the self-cleavage was 0.232.

In the case of C36A G81U, the self-cleavage was determined as 0.0523.

For the variant C26G A83G, the self-cleavage is 0.851.

As for U60G C66G, the self-cleavage was determined as 1.05.

Consider C26G A56G, for which the self-cleavage worked out at 0.795.

For G31C U60C, the self-cleavage worked out at 0.525.

Regarding C22U C30A, the self-cleavage is 0.117.

As for G29C G55U, the self-cleavage came out at 0.0396.

For C7G G40U, the self-cleavage was 0.268.

As for A8U A71U, the self-cleavage is 0.917.

For the variant A83G C85U, the self-cleavage was found to be 0.9.

Regarding G5U A16U, the self-cleavage came out at 0.0978.

On to C19U A71U, for which the self-cleavage amounted to 0.13.

For G34U G81A, the self-cleavage was 0.166.

On to C4U C22U, for which the self-cleavage was 0.259.

In the case of C4U C26A, the self-cleavage came to 0.773.

On to G1A A8G, for which the self-cleavage came to 0.166.

As to G31U C66A, the self-cleavage is 0.45.

A16C C75U: the self-cleavage amounted to 0.138.

Consider C24U A78U, for which the self-cleavage was 0.172.

With C21U U65C, the self-cleavage was found to be 0.198.

In the case of C3U G76C, the self-cleavage was determined as 0.708.

Turning to G29C G31U, the self-cleavage was 0.0755.

As for U46G C66G, the self-cleavage amounted to 0.633.

As to A51U G59U, the self-cleavage was 1.02.
